Source: the supplement of paper PMC10567573

B1: SNX3 (parent)
chain: FLRQLPFRGDDGIFDDNFIEERKQ

Variants of: B1
Assay: protein stability index of a GFP-peptide fusion (GPS, HEK-293T) (PSI 1-6); higher = more stable
Conditions: c terminus: a fixed tail appended
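Also: lentivirally expressed fusions sorted by FACS into six bins by GFP to DsRed ratio, PSI derived from sequencing read proportions per bin multiplied by bin number.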

Protein stability index, by site and new letter:
D16: Y 2.8 | S 3.53 | R 3.23 | Q 3 | A 2.62 | M 2.95 | K 3.86 | P 3.4 | L 2.91 | G 3.18 | C 3.05 | I 3.19 | H 3.6 | F 2.56 | V 3.45 | T 3.06 | W 2.73 | N 2.88
R22: D 3.44 | C 2.85 | A 3.56 | E 3.73
I13: S 3.8 | V 3.3 | D 4.24 | W 2.72 | Y 3.83 | G 3.52 | Q 4.03 | K 4.7 | N 3.28 | F 3.03 | T 3.48 | A 4.22 | H 3.67 | E 4 | P 4.03 | L 3.26 | M 3.03
F18: N 4.16 | K 3.44 | P 3.62 | V 3.67 | L 3.75 | H 3.19 | I 3.08 | M 3.79 | T 3.96 | S 4.3 | D 4.12 | R 3.9 | Q 3.94 | A 4.56 | W 3.2 | C 4.21 | E 4.47 | Y 3.27
I19: Q 4.12 | L 3 | W 3.6 | M 3.75 | S 3.67 | P 4.04 | K 3.62 | V 3.73 | Y 3.15 | F 3.79 | D 3.98 | C 3.29 | T 3.86 | N 3.94 | G 3.87 | H 2.92 | A 4.03
G12: Y 2.91
E20: Y 2.84 | N 2.92 | T 2.24 | H 2.29 | S 2.93 | Q 2.74 | A 3.57 | L 2.56 | I 1.67 | K 3.74 | C 3.23 | W 2.17 | R 3.24 | G 3.17 | M 2.79 | F 2.88 | P 2.44 | D 3.35 | V 2.49
E21: D 4.12 | A 3.12 | H 2.64 | L 3.34 | N 3.01 | V 2.02 | K 3.33 | F 2.39 | M 2.81 | G 2.49 | R 3.19 | P 2.62 | C 2.85 | I 2.96 | S 2.83 | Q 2.84 | Y 2 | T 3.13 | W 2.1
D15: K 2.96 | F 2.74 | S 3.15 | T 3.94 | L 3.28 | A 3.45 | W 2.89 | N 2.75 | E 3.18 | H 3.06 | M 3.28 | V 2.65 | Y 2.43 | C 2.99 | P 3.04 | R 2.71 | Q 2.97 | G 3.12 | I 2.53
N17: E 4.18 | K 3.98 | F 2.58 | G 4.12 | M 2.79 | R 2.61 | P 3.23 | I 2.7 | Q 3.71 | L 2.28 | H 3.41 | A 2.54 | W 1.94 | V 2.97 | T 3.22 | C 3.27 | Y 2.38 | D 3.83
F14: V 3.81 | C 3.06 | A 4.26 | Q 3.67 | D 4.79 | S 3.87 | W 3.38 | K 4.23 | I 3.76 | T 3.86 | M 3.67 | E 4.56 | H 4.32 | Y 2.84 | L 3.56 | R 3.88 | G 4.33
